The values below come from patent US20120134993A1 (ZymoGenetics, published 2012).

T1: recombinant human FGF6 (human, UniProt P10767 83-208, limits assumed)
T1 sequence (looked up): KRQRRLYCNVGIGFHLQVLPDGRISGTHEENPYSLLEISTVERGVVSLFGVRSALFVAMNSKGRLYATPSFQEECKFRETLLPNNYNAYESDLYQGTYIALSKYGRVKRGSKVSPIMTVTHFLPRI

T2: recombinant human FGF-8b (human, UniProt P55075-3 23-215)
T2 sequence (looked up): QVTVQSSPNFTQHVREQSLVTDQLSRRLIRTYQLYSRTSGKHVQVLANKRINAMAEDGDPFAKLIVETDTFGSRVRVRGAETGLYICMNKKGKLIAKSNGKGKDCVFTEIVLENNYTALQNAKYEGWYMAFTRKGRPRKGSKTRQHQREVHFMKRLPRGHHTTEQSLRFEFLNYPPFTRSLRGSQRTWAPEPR

T3: recombinant human FGF4 (human, UniProt P08620 31-206, limits assumed)
T3 sequence (looked up): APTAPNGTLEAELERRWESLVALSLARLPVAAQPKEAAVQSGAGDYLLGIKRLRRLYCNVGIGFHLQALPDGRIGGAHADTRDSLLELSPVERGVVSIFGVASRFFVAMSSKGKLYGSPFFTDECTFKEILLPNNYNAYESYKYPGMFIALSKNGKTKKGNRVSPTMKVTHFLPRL

B1: FGFR3IIIc(143-375)(S249W) Fc5, truncated FGFR3-Fc S249W (A2258F) (Fc fusion)
chain: DTGVDTGAPYWTRPERMDKKLLAVPAANTVRFRCPAAGNPTPSISWLKNGREFRGEHRIGGIKLRHQQWSLVMESVVPSDRGNYTCVVENKFGSIRQTYTLDVLERWPHRPILQAGLPANQTAVLGSDVEFHCKVYSDAQPHIQWLKHVEVNGSKVGPDGTPYVTVLKTAGANTTDKELEVLSLHNVTFEDAGEYTCLAGNSIGFSHHSAWLVVLPAEEELVEADEAGSVYAGEPKSSDKTHTCPPCPAPEAEGAPSVFLFPPKPKDTLMISRTPEVTCVVVDVSHEDPEVKFNWYVDGVEVHNAKTKPREEQYNSTYRVVSVLTVLHQDWLNGKEYKCKVSNKALPSSIEKTISKAKGQPREPQVYTLPPSRDELTKNQVSLTCLVKGFYPSDIAVEWESNGQPENNYKTTPPVLDSDGSFFLYSKLTVDKSRWQQGNVFSCSVMHEALHNHYTQKSLSLSPGK
notes: also called FGFR3 A2258F; FGFR3A2258F
B2: FGFR3IIIc(23-375)(S249W) Fc5, full-length FGFR3-Fc S249W (A2256F) (Fc fusion)
chain: ESLGTEQRVVGRAAEVPGPEPGQQEQLVFGSGDAVELSCPPPGGGPMGPTVWVKDGTGLVPSERVLVGPQRLQVLNASHEDSGAYSCRQRLTQRVLCHFSVRVTDAPSSGDDEDGEDEAEDTGVDTGAPYWTRPERMDKKLLAVPAANTVRFRCPAAGNPTPSISWLKNGREFRGEHRIGGIKLRHQQWSLVMESVVPSDRGNYTCVVENKFGSIRQTYTLDVLERWPHRPILQAGLPANQTAVLGSDVEFHCKVYSDAQPHIQWLKHVEVNGSKVGPDGTPYVTVLKTAGANTTDKELEVLSLHNVTFEDAGEYTCLAGNSIGFSHHSAWLVVLPAEEELVEADEAGSVYAGEPKSSDKTHTCPPCPAPEAEGAPSVFLFPPKPKDTLMISRTPEVTCVVVDVSHEDPEVKFNWYVDGVEVHNAKTKPREEQYNSTYRVVSVLTVLHQDWLNGKEYKCKVSNKALPSSIEKTISKAKGQPREPQVYTLPPSRDELTKNQVSLTCLVKGFYPSDIAVEWESNGQPENNYKTTPPVLDSDGSFFLYSKLTVDKSRWQQGNVFSCSVMHEALHNHYTQKSLSLSPGK
notes: also called FGFR3 A2256F; FGFR3A2256F
B3: FGFR2alphaIIIc(145-377) Fc5, truncated FGFR2-Fc (A2559F) (Fc fusion)
chain: SENSNNKRAPYWTNTEKMEKRLHAVPAANTVKFRCPAGGNPMPTMRWLKNGKEFKQEHRIGGYKVRNQHWSLIMESVVPSDKGNYTCVVENEYGSINHTYHLDVVERSPHRPILQAGLPANASTVVGGDVEFVCKVYSDAQPHIQWIKHVEKNGSKYGPDGLPYLKVLKAAGVNTTDKEIEVLYIRNVTFEDAGEYTCLAGNSIGISFHSAWLTVLPAPGREKEITASPDYLEEPKSSDKTHTCPPCPAPEAEGAPSVFLFPPKPKDTLMISRTPEVTCVVVDVSHEDPEVKFNWYVDGVEVHNAKTKPREEQYNSTYRVVSVLTVLHQDWLNGKEYKCKVSNKALPSSIEKTISKAKGQPREPQVYTLPPSRDELTKNQVSLTCLVKGFYPSDIAVEWESNGQPENNYKTTPPVLDSDGSFFLYSKLTVDKSRWQQGNVFSCSVMHEALHNHYTQKSLSLSPGK
notes: also called FGFR2A2559F; FGFR2 A2559F
B4: FGFR2alphaIIIc(145-377)(P253R) Fc5, truncated FGFR2-Fc P253R (A2561F) (Fc fusion)
chain: B3 chain with P109R
notes: also called FGFR2 A2561F; construct #1950
B5: recombinant human FGF-17 (ligand, UniProt O60258 23-216, looked up)
chain: TQGENHPSPNFNQYVRDQGAMTDQLSRRQIREYQLYSRTSGKHVQVTGRRISATAEDGNKFAKLIVETDTFGSRVRIKGAESEKYICMNKRGKLIGKPSGKSKDCVFTEIVLENNYTAFQNARHEGWFMAFTRQGRPRQASRSRQNQREAHFIKRLYQGQLPFPNHAEKQKQFEFVGSAPTRRTKRTRRPQPLT

Test [1] has as its target T1, recombinant human FGF6. Kind of test: SPR (Biacore T100), FGFR-Fc captured on protein A, FGF6 analyte with heparin, bivalent analyte model (KA1). On the procedure: (§1) Materials and Methods: Binding kinetics and affinity studies were performed on a Biacore T100™ system (GE Healthcare, Piscataway, N.J.). Methods for the Biacore T100™ were programmed using Biacore T100™ Control Software, v 2.0. Since each of the FGF receptor molecules contained a human Fc domain, biotinylated protein-A (Thermo Fisher Scientific Inc, Rockford, Ill.) was used as a capture reagent for these studies. Biotinylated protein-A was diluted to concentration of 50 μg/mL in HBS-EP buffer (10 mM HEPES, 150 mM NaCl, 3 mM EDTA, 0.05% Surfactant P20; GE Healthcare, Piscataway, N.J.), and then captured to all four flow cells of a SA (streptavidin) sensor chip. A density of approximately 1100 RU was obtained for each flow cell. Each FGF receptor molecule was subsequently captured via protein-A onto a separate flow cell of the SA chip at an approximate density of 150-250 RU. The Biacore instrument measures the mass of protein bound to the sensor chip surface, and thus, capture of the receptor was verified for each cycle.
(§2) For kinetic binding studies, serial 1:5 dilutions of FGF ligands were prepared from 200 nM-0.06 nM. These samples were injected over the surface and allowed to specifically bind to the FGF receptor captured on the sensor chip. Injections of each ligand concentration were performed with an association time of 7 minutes and dissociation time of 15 minutes. Kinetic binding studies were performed with a flow rate of 50 μL/min. All binding experiments were performed at 25° C. in HBS-P buffer (10 mM HEPES, 150 mM NaCl, 0.05% Surfactant P20, pH 7.4; GE Healthcare, Piscataway, N.J.), containing 50 μg/mL heparin (Calbiochem, La Jolla, Calif.).
(§3) Between cycles, the flow cell was washed with 20 mM hydrochloric acid to regenerate the surface. This wash step removed both the captured FGF receptor and any bound FGF ligand from the protein-A surface, and allowed for the subsequent binding of the next test sample. Data was compiled using the Biacore T100™ Evaluation software (version 2.0). Data was processed by subtracting reference flow cell and blank injections. Baseline stability was assessed to ensure that the regeneration step provided a consistent binding surface throughout the sequence of injections. Duplicate injection curves were checked for reproducibility. Binding curves were globally fit to the bivalent analyte model.

Test [2] has as its target T2, recombinant human FGF-8b. The experiment in a line: cell-based or functional assay.
The target of test [3] is T1, recombinant human FGF6. The experiment in a line: SPR (Biacore T100), FGFR-Fc captured on protein A, FGF6 analyte with heparin, bivalent analyte model (kd1). On the procedure:
as §1, §2, §3

For test [4], the target named is T2, recombinant human FGF-8b. Kind of test: direct binding ELISA, FGF-8b coated, FGFR-Fc titrated with heparin, anti-human Fc-HRP. On the procedure: (§4) To determine the binding capability of FGFR-Fc to their respective ligands, an ELISA was run. Recombinant human FGF-8b or FGF-17 (R&D Systems) was plated at 100 nM on a Nunc Maxisorp 96-well plate for 1 h at room temperature with shaking. The plates were blocked with BLOTTO (Thermo Fisher Scientific, Rockford, Ill.) for 1 h at room temperature, then washed 5 times with ELISA C buffer (137 mM NaCl, 2.7 mM KCl, 7.2 mM Na₂HPO₄, 1.5 mM KH₂PO₄, 0.05% (v/w) polysorbate 20, pH 7.2). FGFR-Fcs were diluted to 100 nM with PBS/0.1×BLOTTO/10 ug/ml porcine heparin (Sigma, St. Louis, Mo.) and then 1:2 serial dilutions were made, ending at 0.10 nM. 100 μL of FGFR-Fcs were plated and incubated at 4° C. overnight. The following day, the plates were washed 5 times with ELISA C and then incubated with 2.5 μg/mL horseradish peroxidase-conjugated anti-human Fc antibody (Jackson ImmunoResearch Laboratories, West Grove, Pa.) for 1 h at room temperature with shaking. After 5 washes with ELISA C, 100 μL of OPD in citrate buffer (5 mg of o-phenylenediamine in 63 mM sodium citrate, 37 mM citric acid, pH 5.0, 0.03% H₂O₂) was added for detection. After 2-5 minutes, the reaction was stopped with 1 N H₂SO₄. The plates were read at 490 nm using SoftMaxPro software.

The target in test [5] is T1, recombinant human FGF6. Kind of test: SPR (Biacore T100), FGFR-Fc captured on protein A, FGF6 analyte with heparin, bivalent analyte model (ka1). On the procedure:
as §1, §2, §3

For test [6], the target named is T1, recombinant human FGF6. The experiment in a line: SPR (Biacore T100), FGFR-Fc captured on protein A, FGF6 analyte with heparin, bivalent analyte model (KD1). On the procedure:
as §1, §2, §3

Test [7] has as its target B5. The experiment in a line: direct binding ELISA, FGF-17 coated, FGFR-Fc titrated with heparin, anti-human Fc-HRP. On the procedure:
as §4

The target of another test is human FGF-9 (human, UniProt P31371 4-208). Kind of test: cell-based or functional assay.
Another test concerns the target recombinant human FGF1 (human, UniProt P05230 16-155). Kind of test: cell-based or functional assay.
The next test has as its target recombinant human FGF2 (human, UniProt P09038 143-288, limits assumed). Kind of test: cell-based or functional assay.
The target in test [8] is T1, recombinant human FGF6. Kind of test: cell-based or functional assay.
Another test has as its target T3, recombinant human FGF4. Kind of test: cell-based or functional assay.
In test [9] the target is B5. The experiment in a line: ELISA: FGF-17 coated at 100 nM, FGFR-Fc 100 to 0.10 nM in 1:2 steps with 10 ug/ml heparin, anti-human Fc-HRP, OD 490 nm. On the procedure:
as §4

For test [10], the target named is T4, human FGFR4-Fc (R&D Systems) (human, UniProt P22455 22-369).
T4 construct: Bought; also called FGFR4 (R&D systems); R&D FGFR4; not shown: Fc of the commercial fusion; not described
The test is described as above. On the procedure: as §4

Where a chain is given by its changes, count along the chain named. Names may count otherwise.

Sequence of recombinant human FGF1 (P05230 16-155 limits assumed): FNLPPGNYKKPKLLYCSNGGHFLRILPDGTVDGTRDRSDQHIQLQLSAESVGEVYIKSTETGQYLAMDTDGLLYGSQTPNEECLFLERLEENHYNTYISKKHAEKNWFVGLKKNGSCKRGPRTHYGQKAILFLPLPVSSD
Sequence of recombinant human FGF2 (P09038 143-288 limits assumed): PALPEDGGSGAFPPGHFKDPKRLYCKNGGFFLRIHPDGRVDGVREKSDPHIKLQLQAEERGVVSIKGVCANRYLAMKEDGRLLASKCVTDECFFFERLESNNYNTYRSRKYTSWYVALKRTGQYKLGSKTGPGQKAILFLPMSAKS

For the molecule B1, the Ka with recombinant human FGF6 [1] came to 5e+08 M⁻¹. For the same molecule, the “Proliferation IC50, FGF8b-stimulated LNCap cells (3H-thymidine)” value with recombinant human FGF-8b [2] was found to be 0.02 nM. Further, the koff with recombinant human FGF6 [3] is 0.0006 s⁻¹. Besides, the IC50 was 10 nM in the test with recombinant human FGF-8b [4] and 1.31 nM in the test with recombinant human FGF-17 [7]. Also, the kon with recombinant human FGF6 [5] came to 300000 M⁻¹ s⁻¹. Further, the Kd with recombinant human FGF6 [6] amounted to 2 nM. Besides, the “Proliferation IC50, FGF-9-stimulated HCO osteoblasts (3H-thymidine)” value with human FGF-9 was 0.75 nM. For the same molecule, the “IC50, FGF-stimulated HUVEC proliferation (3H-thymidine)” value in the test with recombinant human FGF1 was determined as 0.55 nM; with recombinant human FGF2, 0.67 nM; with recombinant human FGF6 [8] it was 0.78 nM; in the test with recombinant human FGF4, 0.68 nM.

Turning to B2, the Ka with recombinant human FGF6 [1] is 1e+09 M⁻¹. Also, in the test with recombinant human FGF-8b [2], the “Proliferation IC50, FGF8b-stimulated LNCap cells (3H-thymidine)” value is 0.01 nM. Further, the koff with recombinant human FGF6 [3] is 0.0005 s⁻¹. For the same molecule, the IC50 in the test with recombinant human FGF-8b [4] amounted to 37.7 nM; with recombinant human FGF-17 [7] it was 8.66 nM. In the test with recombinant human FGF6 [5], the kon was 600000 M⁻¹ s⁻¹. For the same molecule, the Kd in the test with recombinant human FGF6 [6] was 0.8 nM. In addition, in the test with human FGF-9, the “Proliferation IC50, FGF-9-stimulated HCO osteoblasts (3H-thymidine)” value came to 0.84 nM. Moreover, the “IC50, FGF-stimulated HUVEC proliferation (3H-thymidine)” value with recombinant human FGF1 was 0.82 nM; in the test with recombinant human FGF2, 1 nM; in the test with recombinant human FGF6 [8], 0.95 nM; with recombinant human FGF4 it was 0.74 nM.

For the molecule B3, the binding result in the test with recombinant human FGF-17 [9] is recorded as “no binding (tested: 100 nM)”.

With B4, the binding result in the test with recombinant human FGF-17 [9] is listed as “no binding (tested: 100 nM)”.

As for B5, the binding result in test [10] was “binds”.
